Reference: the supplement of paper PMC9112550, “Optimization of the antimicrobial peptide Bac7 by deep mutational scanning” (BMC Biology, 2022)

Test system: Escherichia coli TOP10
Experiment: shrunken log2 fold change of peptide-encoding DNA abundance (4.5 h post-induction vs induction); higher = less antimicrobial activity (less host growth inhibition)
Details: time post-induction: 4.5 h; library: site-saturation at positions 5, 18, 19, 20
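Further: peptides expressed intracellularly from a pBAD plasmid library in pooled LB shake-flask culture, induced with 0.3% L-arabinose, DNA abundance read by NGS, three biological replicates, DESeq2 with apeglm shrinkage.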

Sequence | shrunken log2 fold change
RRIRQRPPRLPRPRPRPHFGPRP | -0.0794
RRIRKRPPRLPRPRPRPKKIPRP | 0.431
RRIRQRPPRLPRPRPRPNGEPRP | 0.0404
RRIRFRPPRLPRPRPRPNKNPRP | -0.384
RRIRARPPRLPRPRPRPTRDPRP | 0.759
RRIRGRPPRLPRPRPRPSLAPRP | 1.09
RRIRWRPPRLPRPRPRPLGWPRP | 2.31
RRIRLRPPRLPRPRPRPVHSPRP | 0.00898
RRIRSRPPRLPRPRPRPMWHPRP | -0.332
RRIRTRPPRLPRPRPRPFKAPRP | 0.0168
RRIRNRPPRLPRPRPRPCSFPRP | -0.217
RRIRNRPPRLPRPRPRPPPVPRP | 0.933
RRIRQRPPRLPRPRPRPGKCPRP | 0.0125
RRIRPRPPRLPRPRPRPGGDPRP | 0.496
RRIRSRPPRLPRPRPRPGCSPRP | -0.115
RRIRMRPPRLPRPRPRPWCLPRP | -0.208
RRIRSRPPRLPRPRPRPVVDPRP | 0.125
RRIRKRPPRLPRPRPRPHKLPRP | 0.00078
RRIRTRPPRLPRPRPRPEYMPRP | -0.263
RRIRVRPPRLPRPRPRPGAHPRP | 0.0262
RRIRVRPPRLPRPRPRPKQSPRP | 0.0123
RRIRSRPPRLPRPRPRPAKLPRP | 0.195
RRIRNRPPRLPRPRPRPRELPRP | 0.287
RRIRDRPPRLPRPRPRPVVGPRP | 0.642
RRIRPRPPRLPRPRPRPKYSPRP | -0.55

Sequence | shrunken log2 fold change
RRIRKRPPRLPRPRPRPMHQPRP | 0.003
RRIRCRPPRLPRPRPRPAHMPRP | -0.249
RRIRKRPPRLPRPRPRPKECPRP | 0.121
RRIRHRPPRLPRPRPRPEMFPRP | 0.223
RRIRHRPPRLPRPRPRPFMIPRP | -0.341
RRIRRRPPRLPRPRPRPHANPRP | 0.275
RRIRYRPPRLPRPRPRPKMQPRP | -0.344
RRIRMRPPRLPRPRPRPAADPRP | 2.81
RRIRLRPPRLPRPRPRPTGMPRP | 0.056
RRIRTRPPRLPRPRPRPAMCPRP | 0.131
RRIRARPPRLPRPRPRPLPFPRP | -0.249
RRIRSRPPRLPRPRPRPGNEPRP | -0.183
RRIRVRPPRLPRPRPRPNSYPRP | -0.309
RRIRDRPPRLPRPRPRPHNNPRP | -0.604
RRIRERPPRLPRPRPRPFSLPRP | -0.2
RRIRIRPPRLPRPRPRPHYGPRP | -0.223
RRIRIRPPRLPRPRPRPSVSPRP | -0.0804
RRIRIRPPRLPRPRPRPEIVPRP | -0.255
RRIRMRPPRLPRPRPRPGTSPRP | 0.24
RRIRHRPPRLPRPRPRPAPHPRP | 0.223
RRIRFRPPRLPRPRPRPVLQPRP | 0.21
RRIRMRPPRLPRPRPRPNNNPRP | -0.134
RRIRPRPPRLPRPRPRPSGHPRP | -0.395
RRIRMRPPRLPRPRPRPPLIPRP | 0.242
RRIRHRPPRLPRPRPRPKIMPRP | -0.811

Sequence | shrunken log2 fold change
RRIRVRPPRLPRPRPRPTGMPRP | 0.0943
RRIRQRPPRLPRPRPRPWLEPRP | 0.0751
RRIRIRPPRLPRPRPRPPVMPRP | 0.126
RRIRCRPPRLPRPRPRPDEMPRP | -0.0197
RRIRIRPPRLPRPRPRPREYPRP | -0.565
RRIRVRPPRLPRPRPRPPPWPRP | 0.758
RRIRDRPPRLPRPRPRPTFMPRP | -0.07
RRIRDRPPRLPRPRPRPMAHPRP | -0.00211
RRIRKRPPRLPRPRPRPYFRPRP | 0.123
RRIRPRPPRLPRPRPRPFAMPRP | 0.0938
RRIRARPPRLPRPRPRPRVWPRP | 0.827
RRIRTRPPRLPRPRPRPDKVPRP | -0.0275
RRIRFRPPRLPRPRPRPVHRPRP | -0.261
RRIRPRPPRLPRPRPRPDDWPRP | 0.247
RRIRQRPPRLPRPRPRPWNTPRP | -0.169
RRIRSRPPRLPRPRPRPEDDPRP | 0.744
RRIRRRPPRLPRPRPRPLFFPRP | 0.137
RRIRNRPPRLPRPRPRPCVKPRP | -0.13
RRIRKRPPRLPRPRPRPSPNPRP | 1.52
RRIRMRPPRLPRPRPRPQAWPRP | -0.0331
RRIRWRPPRLPRPRPRPFAQPRP | -0.0369
RRIRVRPPRLPRPRPRPLLTPRP | -0.0362
RRIRFRPPRLPRPRPRPCNHPRP | -0.41
RRIRMRPPRLPRPRPRPNFDPRP | 0.622
RRIRMRPPRLPRPRPRPCENPRP | 0.0192

Sequence | shrunken log2 fold change
RRIRNRPPRLPRPRPRPAYAPRP | -0.236
RRIRHRPPRLPRPRPRPDLPPRP | 0.107
RRIRMRPPRLPRPRPRPEFWPRP | 0.893
RRIRSRPPRLPRPRPRPLILPRP | -0.628
RRIRYRPPRLPRPRPRPEFYPRP | -0.316
RRIRKRPPRLPRPRPRPTYCPRP | 0.135
RRIRHRPPRLPRPRPRPRPIPRP | 0.117
RRIRMRPPRLPRPRPRPDEFPRP | 1.49
RRIRNRPPRLPRPRPRPYCCPRP | -0.564
RRIRSRPPRLPRPRPRPFCRPRP | -0.0968
RRIRERPPRLPRPRPRPPYAPRP | -0.208
RRIRGRPPRLPRPRPRPHDPPRP | 0.546
RRIRPRPPRLPRPRPRPGYQPRP | -0.0523
RRIRARPPRLPRPRPRPYEMPRP | -0.0385
RRIRGRPPRLPRPRPRPWKEPRP | 0.275
RRIRARPPRLPRPRPRPYLHPRP | -1.18
RRIRHRPPRLPRPRPRPVWYPRP | 0.00395
RRIRFRPPRLPRPRPRPSHPPRP | -0.19
RRIRFRPPRLPRPRPRPNNMPRP | -0.699
RRIRKRPPRLPRPRPRPYKYPRP | -0.00882
RRIRDRPPRLPRPRPRPYSSPRP | -0.152
RRIRFRPPRLPRPRPRPCGYPRP | -0.0542
RRIRCRPPRLPRPRPRPRICPRP | 0.183
RRIRQRPPRLPRPRPRPACLPRP | 0.14
RRIRMRPPRLPRPRPRPPEGPRP | 0.338

Sequence | shrunken log2 fold change
RRIRTRPPRLPRPRPRPYAWPRP | -0.0721
RRIRFRPPRLPRPRPRPFFRPRP | -0.213
RRIRDRPPRLPRPRPRPNQSPRP | -0.527
RRIRERPPRLPRPRPRPEGRPRP | 0.583
RRIRHRPPRLPRPRPRPSEYPRP | -0.787
RRIRCRPPRLPRPRPRPLGYPRP | 0.0405
RRIRFRPPRLPRPRPRPNCQPRP | -0.508
RRIRCRPPRLPRPRPRPYNLPRP | -0.986
RRIRDRPPRLPRPRPRPLFDPRP | 0.393
RRIRVRPPRLPRPRPRPRNAPRP | 0.225
RRIRGRPPRLPRPRPRPSPWPRP | 0.392
RRIRGRPPRLPRPRPRPRYWPRP | 0.248
RRIRARPPRLPRPRPRPQLKPRP | 0.237
RRIRYRPPRLPRPRPRPNIQPRP | -1.58
RRIRSRPPRLPRPRPRPHVYPRP | -0.355
RRIRKRPPRLPRPRPRPAGCPRP | 0.702
RRIRRRPPRLPRPRPRPYVTPRP | -0.383
RRIRGRPPRLPRPRPRPYRKPRP | 0.176
RRIRNRPPRLPRPRPRPFYNPRP | -0.484
RRIRDRPPRLPRPRPRPKVCPRP | -0.0149
RRIRVRPPRLPRPRPRPLQSPRP | 0.12
RRIRIRPPRLPRPRPRPHLLPRP | 0.0103
RRIRERPPRLPRPRPRPNSMPRP | -0.864
RRIRHRPPRLPRPRPRPQHSPRP | -0.376
RRIRDRPPRLPRPRPRPSWWPRP | 0.276

Sequence | shrunken log2 fold change
RRIRYRPPRLPRPRPRPFKSPRP | -0.0165
RRIRRRPPRLPRPRPRPYYLPRP | -0.308
RRIRERPPRLPRPRPRPDFFPRP | -0.279
RRIRMRPPRLPRPRPRPCSPPRP | 0.0324
RRIRWRPPRLPRPRPRPANWPRP | 0.273
RRIRWRPPRLPRPRPRPQTTPRP | 0.206
RRIRARPPRLPRPRPRPTCAPRP | 0.863
RRIRTRPPRLPRPRPRPFLEPRP | -0.417
RRIRARPPRLPRPRPRPELRPRP | 1.14
RRIRARPPRLPRPRPRPTTTPRP | 0.264
RRIRDRPPRLPRPRPRPREHPRP | -0.118
RRIRRRPPRLPRPRPRPDCFPRP | 0.681
RRIRGRPPRLPRPRPRPNKKPRP | 0.0152
RRIRARPPRLPRPRPRPMCKPRP | 0.0809
RRIRARPPRLPRPRPRPKVRPRP | 0.047
RRIRPRPPRLPRPRPRPKGHPRP | 0.106
RRIRPRPPRLPRPRPRPHFHPRP | -0.191
RRIRTRPPRLPRPRPRPSKTPRP | 0.0543
RRIRARPPRLPRPRPRPSVEPRP | 0.49
RRIRVRPPRLPRPRPRPSCPPRP | -0.245
RRIRLRPPRLPRPRPRPPENPRP | 0.588
RRIRRRPPRLPRPRPRPTVWPRP | 0.359
RRIRQRPPRLPRPRPRPWVSPRP | -0.0689
RRIRDRPPRLPRPRPRPVYNPRP | -0.00379
RRIRERPPRLPRPRPRPAPHPRP | 0.704
